Results as given in article PMC11187563, “The importance of tyrosines in multimers of cyclic RGD nonapeptides: towards αvβ6-integrin targeted radiotherapeutics” (RSC Medicinal Chemistry, 2024).
Where two headings read alike, the source gives them in different places.

How the values were obtained:
[1] = tested on: αvβ6-integrin expressing human lung adenocarcinoma cell line H2009 xenografts; assay: Ex vivo biodistribution of 177Lu-labeled peptide tetramers in H2009 xenografted SCID mice; details: H2009 bearing SCID mice
How it was run: (§1)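 SCID mice carried subcutaneous H2009 xenografts on the right shoulder. 177Lu-labeled conjugates were injected i.v., and ex vivo organ distribution was measured at two time points post-injection.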

[2] = as above; details: CB17 SCID, mouse, iv, total radioactivity, H2009 bearing SCID mice; for tissue uptake at 72 h / tissue to tissue ratio at 72 h: 42 pmol, 3 d p.i.; for tissue uptake at 1.5 h / tissue to tissue ratio at 1.5 h: 139 pmol, 90 min p.i.
How it was run: as §1

[3] = H2009 tumor, read-out: Tumor H2009 %IA/g
[4] = adrenals, read-out: Adrenals %IA/g
[5] = heart (myocard), read-out: Heart (myocard) %IA/g
[6] = kidneys, read-out: Kidneys %IA/g
[7] = large intestine (empty), read-out: Large intestine (empty) %IA/g
[8] = pancreas, read-out: Pancreas %IA/g
[9] = small intestine (empty), read-out: Small intestine (empty) %IA/g
[10] = stomach (empty), read-out: Stomach (empty) %IA/g
[11] = tumor/blood, read-out: tumor/organ ratio, Blood
[12] = tumor/heart (myocard), read-out: tumor/organ ratio, Heart (myocard)
[13] = tumor/liver, read-out: tumor/organ ratio, Liver
[14] = tumor/lung, read-out: tumor/organ ratio, Lung
[15] = tumor/pancreas, read-out: tumor/organ ratio, Pancreas
[16] = tumor/spleen, read-out: tumor/organ ratio, Spleen

CC(C)C[C@@H]1NC(=O)[C@H](CC(=O)O)NC(=O)CNC(=O)[C@H](CCCNC(=N)N)NC(=O)[C@H](Cc2ccccc2)NC(=O)[C@H](CCCCNC(=O)CCc2cn(CCCNC(=O)CCP(=O)(O)CN3CCN(CP(=O)(O)CCC(=O)NCCCn4cc(CCC(=O)NCCCC[C@H]5C(=O)N[C@@H](Cc6ccccc6)C(=O)N[C@@H](CCCNC(=N)N)C(=O)NCC(=O)N[C@@H](CC(=O)O)C(=O)N[C@@H](CC(C)C)C(=O)N[C@@H](C)C(=O)N[C@@H](Cc6ccc(O)cc6)C(=O)N6CCC[C@@H]6C(=O)N5C)nn4)CCN(CP(=O)(O)CCC(=O)NCCCn4cc(CCC(=O)NCCCC[C@H]5C(=O)N[C@@H](Cc6ccccc6)C(=O)N[C@@H](CCCNC(=N)N)C(=O)NCC(=O)N[C@@H](CC(=O)O)C(=O)N[C@@H](CC(C)C)C(=O)N[C@@H](C)C(=O)N[C@@H](Cc6ccc(O)cc6)C(=O)N6CCC[C@@H]6C(=O)N5C)nn4)CCN(CP(=O)(O)CCC(=O)NCCCn4cc(CCC(=O)NCCCC[C@H]5C(=O)N[C@@H](Cc6ccccc6)C(=O)N[C@@H](CCCNC(=N)N)C(=O)NCC(=O)N[C@@H](CC(=O)O)C(=O)N[C@@H](CC(C)C)C(=O)N[C@@H](C)C(=O)N[C@@H](Cc6ccc(O)cc6)C(=O)N6CCC[C@@H]6C(=O)N5C)nn4)CC3)nn2)N(C)C(=O)[C@H]2CCCN2C(=O)[C@H](Cc2ccccc2)NC(=O)[C@H](C)NC1=O [Compound 177Lu-Y3, metal not drawn]
tumor/organ ratio, Kidneys ([1]; 90 min p.i.): 0.0 | tumor/organ ratio, Kidneys ([1]; 3 d p.i.): 0.0 | tissue uptake at 72 h [2, 3]: 2.03 %ID/g | tissue uptake at 1.5 h [2, 3]: 3.7 %ID/g | tissue uptake at 72 h [2, 4]: 0.27 %ID/g | tissue uptake at 1.5 h [2, 4]: 1.04 %ID/g | tissue uptake at 72 h ([2]; blood, read-out: Blood %IA/g): 0.02 %ID/g | tissue uptake at 1.5 h ([2]; blood, read-out: Blood %IA/g): 1.11 %ID/g | tissue uptake at 72 h ([2]; bone, read-out: Bone %IA/g): 0.35 %ID/g | tissue uptake at 1.5 h ([2]; bone, read-out: Bone %IA/g): 1.51 %ID/g | tissue uptake at 72 h [2, 5]: 0.22 %ID/g | tissue uptake at 1.5 h [2, 5]: 0.65 %ID/g | tissue uptake at 72 h [2, 6]: 250 %ID/g | tissue uptake at 1.5 h [2, 6]: 141 %ID/g | tissue uptake at 72 h [2, 7]: 1.34 %ID/g | tissue uptake at 1.5 h [2, 7]: 3.43 %ID/g | tissue uptake at 72 h ([2]; liver, read-out: Liver %IA/g): 1.17 %ID/g | tissue uptake at 1.5 h ([2]; liver, read-out: Liver %IA/g): 7.59 %ID/g | tissue uptake at 72 h ([2]; lung, read-out: Lung %IA/g): 1.22 %ID/g | tissue uptake at 1.5 h ([2]; lung, read-out: Lung %IA/g): 4.91 %ID/g | tissue uptake at 72 h ([2]; muscle, read-out: Muscle %IA/g): 0.47 %ID/g | tissue uptake at 1.5 h ([2]; muscle, read-out: Muscle %IA/g): 0.57 %ID/g | tissue uptake at 72 h [2, 8]: 0.25 %ID/g | tissue uptake at 1.5 h [2, 8]: 0.36 %ID/g | tissue uptake at 72 h [2, 9]: 0.37 %ID/g | tissue uptake at 1.5 h [2, 9]: 2.49 %ID/g | tissue uptake at 72 h ([2]; spleen, read-out: Spleen %IA/g): 1.36 %ID/g | tissue uptake at 1.5 h ([2]; spleen, read-out: Spleen %IA/g): 8.5 %ID/g | tissue uptake at 72 h [2, 10]: 4.76 %ID/g | tissue uptake at 1.5 h [2, 10]: 7.42 %ID/g | tissue to tissue ratio at 72 h ([2]; tumor / adrenals, read-out: tumor/organ ratio, Adrenals): 8.4 | tissue to tissue ratio at 72 h ([2]; tumor / bone, read-out: tumor/organ ratio, Bone): 6.6 | tissue to tissue ratio at 72 h ([2]; tumor / large intestine (empty), read-out: tumor/organ ratio, Large intestine (empty)): 2.3 | tissue to tissue ratio at 72 h ([2]; tumor / muscle, read-out: tumor/organ ratio, Muscle): 5.3 | tissue to tissue ratio at 72 h ([2]; tumor / small intestine (empty), read-out: tumor/organ ratio, Small intestine (empty)): 6.6 | tissue to tissue ratio at 72 h ([2]; tumor / stomach (empty), read-out: tumor/organ ratio, Stomach (empty)): 0.5 | tissue to tissue ratio at 1.5 h ([2]; tumor/adrenals, read-out: tumor/organ ratio, Adrenals): 3.9 | tissue to tissue ratio at 72 h [2, 11]: 129 | tissue to tissue ratio at 1.5 h [2, 11]: 3.4 | tissue to tissue ratio at 1.5 h ([2]; tumor/bone, read-out: tumor/organ ratio, Bone): 2.5 | tissue to tissue ratio at 72 h [2, 12]: 9.4 | tissue to tissue ratio at 1.5 h [2, 12]: 5.8 | tissue to tissue ratio at 1.5 h ([2]; tumor/large intestine (empty), read-out: tumor/organ ratio, Large intestine (empty)): 1.1 | tissue to tissue ratio at 72 h [2, 13]: 1.9 | tissue to tissue ratio at 1.5 h [2, 13]: 0.6 | tissue to tissue ratio at 72 h [2, 14]: 1.7 | tissue to tissue ratio at 1.5 h [2, 14]: 0.8 | tissue to tissue ratio at 1.5 h ([2]; tumor/muscle, read-out: tumor/organ ratio, Muscle): 6.6 | tissue to tissue ratio at 72 h [2, 15]: 10.6 | tissue to tissue ratio at 1.5 h [2, 15]: 10.3 | tissue to tissue ratio at 1.5 h ([2]; tumor/small intestine (empty), read-out: tumor/organ ratio, Small intestine (empty)): 1.5 | tissue to tissue ratio at 72 h [2, 16]: 1.7 | tissue to tissue ratio at 1.5 h [2, 16]: 0.5 | tissue to tissue ratio at 1.5 h ([2]; tumor/stomach (empty), read-out: tumor/organ ratio, Stomach (empty)): 0.5
